Experimental data taken from patent US20120309696A1 (UNIVERSITY OF DENVER, published 2012).

B1: ACTH analog SYSMEHFRWGKPVGKKAAAVKVYP (peptide)
peptide: SYSMEHFRWGKPVGKKAAAVKVYP
B2: ACTH analog SYSMEHFRWGKPVGAARRPVKVYP (peptide)
peptide: SYSMEHFRWGKPVGAARRPVKVYP
B3: ACTH analog SYSMEHFRWGKPVGAAAAAVKVYP (peptide)
peptide: SYSMEHFRWGKPVGAAAAAVKVYP
B4: ACTH analog SYSMEHFRWAAAAAKKRRPVKVYP (peptide)
peptide: SYSMEHFRWAAAAAKKRRPVKVYP

What was measured:
[1] = target: T1, human melanocortin 2 receptor (hMC2R), V-5 epitope tagged, expressed on CHO cells co-transfected with mouse … (human, UniProt Q01718 1-297); experiment: cell-based or functional assay
T1 sequence (Q01718 whole entry): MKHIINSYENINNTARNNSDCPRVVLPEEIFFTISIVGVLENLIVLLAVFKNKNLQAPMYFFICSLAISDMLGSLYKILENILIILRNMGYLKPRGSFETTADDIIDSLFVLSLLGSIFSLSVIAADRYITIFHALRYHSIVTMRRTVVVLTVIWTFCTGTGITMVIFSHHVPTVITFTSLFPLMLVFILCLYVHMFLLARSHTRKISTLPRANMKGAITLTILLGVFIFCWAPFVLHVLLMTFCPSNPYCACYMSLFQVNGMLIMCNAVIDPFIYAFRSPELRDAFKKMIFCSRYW

[2] = target: T1, human melanocortin 2 receptor (hMC2R), …; experiment: cell-based or functional assay; remark: listed apart in the source

| fold decrease in MC2R activation relative to full-length ACTH (cAMP production in transfected CHO cells) [1] | fold decrease in potency in cAMP production against ACTH(1-24) [2] | Binder |
| --- | --- | --- |
| 100 fold | – | B1 |
| 100 fold | – | B2 |
| – | 1000 fold | B3 |
| 400 fold | – | B4 |
